Experimental data from US20140017242A1, “ANTI-BRADYKININ B2 RECEPTOR (BKB2R) MONOCLONAL ANTIBODY” (Diamedica, Inc., priority 2010, published 2014).
Where “and” joins values, the source holds several entries; their conditions need not be identical. Equal values may be shown once.

Legend:
[1] = tested on: influenza strain A/Brisbane/07 (H1N1); type: cell-based, influenza virus
[2] = tested on: BxPC-3; assay: MTT Cell Proliferation Assay, BxPC-3; type: cell-based, human; conditions: 120 hours of exposure
Excerpt: (§1) This Example describes characterization of the cytotoxic activity of herein described anti-BKB2R monoclonal antibodies against a panel of cancer cell lines. BxPC-3 is a human adenocarcinoma cell line originally isolated from the pancreas (pancreatic cancer) (ATCC # CRL-1687; Tan et al., Cancer Invest. 4: 15-23, 1986. PubMed: 3754176). MV-4-11 is a human biphenotypic B myelomonocytic leukemia (mixed-lineage leukemia, MLL-AF4) cell line originally isolated from the peripheral blood (ATCC # CRL-959; Lange et al., Blood 70: 192-199, 1987. PubMed: 3496132). Hep G2 is a human hepatocellular carcinoma cell line isolated from the liver (liver cancer) (ATCC # HB-8065; Aden et al., Nature 282: 615-616, 1979. PubMed: 233137). RS4;11 is a human acute lymphoblastic leukemia (mixed-lineage leukemia, MLL-AF4) cell line isolated from the bone marrow (ATTC # CRL-1873) Stong et al., Blood 65: 21-31, 1985. PubMed: 3917311). HT-29 is a human colorectal adenocarcinoma (ATTC # HTB-38) cell line isolated from the colon (colon cancer). Fogh et al., J. Natl. Cancer Inst. 58: 209-214, 1977. PubMed: 833871). NUGC-4 is a human stomach carcinoma isolated from the stomach paragastiric lymph node (JCRB # JCRB0834; Akiyama et al., Jpn. J. Surg., 18: 438-446, 1988). […]
(§2) The anti-proliferative activity of test compounds against the indicated cell lines was evaluated in vitro using the ATCC's MTT Cell Proliferation Assay (Catalog No. 30-1010K). After the 120 hour incubation with drug (e.g., anti-BKB2R mAb or cisplatin), cell proliferation was measured by addition of MTT reagent to each well and incubation for an additional 4 hrs. […] Optical absorbance (570 nm) of the test wells was measured and then quantitated relative to control wells that received no drug. Results were expressed as percent inhibition versus compound concentration and graphed, as shown in FIGS. 19-25, for cell lines BxPC-3, MV-4;11, HepG2, RS-4;11, HT-29, NUGC-4, and PC-3, respectively.

[3] = tested on: NUGC-4; assay: MTT Cell Proliferation Assay, NUGC-4; type: cell-based, human; conditions: 120 hours of exposure
Excerpt: as §1, §2

[4] = tested on: ZDF fa/fa rats; assay: 21-day ZDF fa/fa study: fasting blood glucose; type: in vivo, rat; conditions: for fasting blood glucose level: day 21
Protocol: Animals. Male ZDF fa/fa rats were obtained from CRL (Kingston, N.Y.). Upon arrival, rats were seven weeks of age. The rats were housed individually per cage in a room with a photo cycle of 12 hours of light and 12 hours of dark and an ambient temperature of 70-72° F. and fed on regular rodent diet and water ad libitum. At the age of eleven weeks, rats were divided into six groups (Table 5) of eight rats per group based on fasting blood glucose levels. A sub-group of four rats per group was maintained in parallel to the main groups and was dosed similarly for twenty-one days for a hyperinsulinemic-euglycemic clamp study. […]
An oral glucose tolerance test (OGTT) was performed on Day 0, 7, 14 and 21 for each group of the study. Plasma samples were collected at each time point during OGTT to also measure insulin levels. Body weight, food and water intake were measured twice a week. Blood pressure and heart rates were monitored on Day 0, 7, 14 and 21 using a non-invasive tail cuff method (with five readings per rat taken and then averaged). Fasting serum samples were collected on Day 0, 7, 14 and 21 before OGTT for determination of triglyceride and total cholesterol level. Urine samples were collected on Day 7 and 14 for the determination of glycosuria. Glycated (Glycosylated) hemoglobin (HbA1c) was measured at the end of the study. Assay kits for these studies were as presented in Table 6, and were used according to the suppliers' instructions.
Fasting blood glucose levels were measured on Day 0, 7, 14 and 21.
The mean change in fasting blood glucose (mg/dL), serum cholesterol (mg/dL) and systolic blood pressure (mm Hg) from baseline (Day 0) to Day 21 was compared between the high-dose (5F12G1, 0.2 mg/kg) and negative control (MG2b-57, 0.2 mg/kg) groups using an analysis of covariance to adjust for baseline levels. The mean HbA1c percentage in high-dose (5F12G1, 0.2 mg/kg) rats was compared to the mean HbA1c percentage for negative control (MG2b-57, 0.2 mg/kg) rats using an unequal-variance, independent two-sample t-test. A significance level of a=0.05 was used for all tests, and all analyses were conducted using SAS statistical software (vs. 9.2, Cary, N.C., U.S.A.).

[5] = tested on: ZDF fa/fa rats; assay: 21-day ZDF fa/fa study: tolerability; type: in vivo, rat; conditions: different doses (0.2, 0.04, 0.008 mg/kg s.c. every 3 days), 21 days
Protocol: Animals. Male ZDF fa/fa rats were obtained from CRL (Kingston, N.Y.). Upon arrival, rats were seven weeks of age. The rats were housed individually per cage in a room with a photo cycle of 12 hours of light and 12 hours of dark and an ambient temperature of 70-72° F. and fed on regular rodent diet and water ad libitum. At the age of eleven weeks, rats were divided into six groups (Table 5) of eight rats per group based on fasting blood glucose levels. A sub-group of four rats per group was maintained in parallel to the main groups and was dosed similarly for twenty-one days for a hyperinsulinemic-euglycemic clamp study.
The test compounds 5F12G1 and MG2b-57 were administered subcutaneously once every three days. Exenatide was administrated intraperitoneally twice every day and sitagliptin was administrated orally once every day for a period of twenty-one days.

B1: 5F12G1: murine monoclonal anti-BKB2R antibody (IgG2b,κ), VH comprising SEQ ID NO:1, VL comprising SEQ ID NO:2 (antibody, listed as Mus musculus, V domains shown)
VH: EVKLEESGGGLVQPGGSMKLSCVVSGFTFSDYWMSWVRHSPEMGLEWVAEIRLKSDNYATHYAESVKGRFTISRDDSKSRLYLQINSLRGEDTGIYYCTRDYYAMEYWGQGTSVTVSS
VL: DVVMTQTPLSLPVSLGDQASISCRSSQTIVHSNGKTYLEWYLQKPGQSPKLLIYKVSNRFSGVPDRFSGSGSGTEFTLKISRVETEDLGVYYCFQASHVPYTFGGGTKLEIK
[1]
  +/− Result FAM: Positive
[1]; A549 cells, qRT-PCR, FIGS. 5 to 8
  dose dependence of the reduction of viral titer / viral genomic copies: decreased viral titer in a dose-dependent manner
[1]; highest tested concentration of 100 μg/ml
  reduction in viral titer: 100 fold
[1]; listed as G1
  Ct FAM: 36.21 and 30.38 and 35.93 and 30.08 and 37.95 and 32.97 and 34.96 and 34.02
[2]
  EC 50 Values (ng/ml) BxPC-3: 23000 ng/mL
[3]
  EC 50 Values (ng/ml) NUGC-4: 47000 ng/mL
[4]; 0.2 mg/kg s.c. every 3 days, Day 0 to Day 21
  increase of fasting blood glucose from baseline: 33.1 ± 19.7 mg/dL
[4]; 0.2 mg/kg s.c. every 3 days, baseline 117.6+/−14.2 (5F12G1), 116.5+/−25.8 (MG2b-57)
  fasting blood glucose level: approximately 150.8+/−56.5 mg/dl
[4]; second of three values given respectively (0.04 mg/kg s.c. every 3 days)
  fasting blood glucose level: ~163 ± 21 mg/dL
[4]; third of three values given respectively (0.008 mg/kg s.c. every 3 days)
  fasting blood glucose level: ~190 ± 40 mg/dL
[5]
  tolerability / toxic effects: well tolerated and no toxic effects were noted
